Laboratory results published in patent US20230220589A1.
Numbering of substitutions follows the chain as printed.

Experiments:
[1] = molecular target: M17-modified N NTAA target peptides; assay: encoding assay; P2 I;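 note: fraction of recording tags encoded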
[2] = molecular target: M17-modified D NTAA target peptides; assay: encoding assay; P2 I;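 note: fraction of recording tags encoded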
[3] = molecular target: M17-modified Q NTAA target peptides; assay: encoding assay; P2 I;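 note: fraction of recording tags encoded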
[4] = molecular target: M17-modified I NTAA target peptides; assay: encoding assay; P2 I;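 note: fraction of recording tags encoded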
[5] = molecular target: M17-modified E NTAA target peptides; assay: encoding assay; P2 I;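 note: fraction of recording tags encoded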
[6] = molecular target: M17-modified H NTAA target peptides; assay: encoding assay; P2 I;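 note: fraction of recording tags encoded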
[7] = molecular target: M17-modified P NTAA target peptides; assay: encoding assay; P2 I;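 note: fraction of recording tags encoded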
[8] = molecular target: M17-modified N NTAA target peptides; assay: encoding assay; P2 Q;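 note: fraction of recording tags encoded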
[9] = molecular target: M17-modified F NTAA target peptides; assay: encoding assay; P2 Q;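 note: fraction of recording tags encoded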
[10] = molecular target: M17-modified D NTAA target peptides; assay: encoding assay; P2 Q;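 note: fraction of recording tags encoded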
[11] = molecular target: M17-modified Q NTAA target peptides; assay: encoding assay; P2 Q;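 note: fraction of recording tags encoded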
[12] = molecular target: M17-modified W NTAA target peptides; assay: encoding assay; P2 Q;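 note: fraction of recording tags encoded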
[13] = molecular target: M17-modified I NTAA target peptides; assay: encoding assay; P2 Q;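 note: fraction of recording tags encoded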
[14] = molecular target: M17-modified A NTAA target peptides; assay: encoding assay; P2 Q;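 note: fraction of recording tags encoded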
[15] = molecular target: M17-modified Y NTAA target peptides (M17-Y-P2-peptide); assay: encoding assay; P2 Q;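 note: fraction of recording tags encoded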
[16] = molecular target: M17-modified T NTAA target peptides; assay: encoding assay; P2 Q;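 note: fraction of recording tags encoded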
[17] = molecular target: M17-modified E NTAA target peptides; assay: encoding assay; P2 Q;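 note: fraction of recording tags encoded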
[18] = molecular target: M17-modified H NTAA target peptides; assay: encoding assay; P2 Q;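 note: fraction of recording tags encoded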
[19] = molecular target: M17-modified G NTAA target peptides; assay: encoding assay; P2 Q;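 note: fraction of recording tags encoded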
[20] = molecular target: M17-modified L NTAA target peptides; assay: encoding assay; P2 Q;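 note: fraction of recording tags encoded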
[21] = molecular target: M17-modified V NTAA target peptides; assay: encoding assay; P2 Q;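 note: fraction of recording tags encoded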
[22] = molecular target: M17-modified S NTAA target peptides; assay: encoding assay; P2 Q;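 note: fraction of recording tags encoded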
[23] = molecular target: M17-modified P NTAA target peptides; assay: encoding assay; P2 Q;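 note: fraction of recording tags encoded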
[24] = molecular target: M17-modified N NTAA target peptides; assay: encoding assay; P2 L;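 note: fraction of recording tags encoded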
[25] = molecular target: M17-modified Q NTAA target peptides; assay: encoding assay; P2 L;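 note: fraction of recording tags encoded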
[26] = molecular target: M17-modified W NTAA target peptides; assay: encoding assay; P2 L;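 note: fraction of recording tags encoded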
[27] = molecular target: M17-modified A NTAA target peptides; assay: encoding assay; P2 L;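 note: fraction of recording tags encoded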
[28] = molecular target: M17-modified Y NTAA target peptides (M17-Y-P2-peptide); assay: encoding assay; P2 L;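 note: fraction of recording tags encoded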
[29] = molecular target: M17-modified E NTAA target peptides; assay: encoding assay; P2 L;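 note: fraction of recording tags encoded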
[30] = molecular target: M17-modified H NTAA target peptides; assay: encoding assay; P2 L;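 note: fraction of recording tags encoded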
[31] = molecular target: M17-modified P NTAA target peptides; assay: encoding assay; P2 L;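 note: fraction of recording tags encoded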
[32] = molecular target: M17-modified N NTAA target peptides; assay: encoding assay; P2 Y;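 note: fraction of recording tags encoded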
[33] = molecular target: M17-modified F NTAA target peptides; assay: encoding assay; P2 Y;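 note: fraction of recording tags encoded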
[34] = molecular target: M17-modified D NTAA target peptides; assay: encoding assay; P2 Y;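 note: fraction of recording tags encoded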
[35] = molecular target: M17-modified Q NTAA target peptides; assay: encoding assay; P2 Y;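 note: fraction of recording tags encoded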
[36] = molecular target: M17-modified M NTAA target peptides; assay: encoding assay; P2 Y;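 note: fraction of recording tags encoded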
[37] = molecular target: M17-modified W NTAA target peptides; assay: encoding assay; P2 Y;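 note: fraction of recording tags encoded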
[38] = molecular target: M17-modified I NTAA target peptides; assay: encoding assay; P2 Y;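 note: fraction of recording tags encoded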
[39] = molecular target: M17-modified A NTAA target peptides; assay: encoding assay; P2 Y;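 note: fraction of recording tags encoded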
[40] = molecular target: M17-modified Y NTAA target peptides (M17-Y-P2-peptide); assay: encoding assay; P2 Y;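 note: fraction of recording tags encoded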
[41] = molecular target: M17-modified T NTAA target peptides; assay: encoding assay; P2 Y;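 note: fraction of recording tags encoded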
[42] = molecular target: M17-modified E NTAA target peptides; assay: encoding assay; P2 Y;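 note: fraction of recording tags encoded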
[43] = molecular target: M17-modified H NTAA target peptides; assay: encoding assay; P2 Y;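 note: fraction of recording tags encoded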
[44] = molecular target: M17-modified G NTAA target peptides; assay: encoding assay; P2 Y;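 note: fraction of recording tags encoded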
[45] = molecular target: M17-modified L NTAA target peptides; assay: encoding assay; P2 Y;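 note: fraction of recording tags encoded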
[46] = molecular target: M17-modified S NTAA target peptides; assay: encoding assay; P2 Y;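 note: fraction of recording tags encoded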
[47] = molecular target: M17-modified P NTAA target peptides; assay: encoding assay; P2 Y;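 note: fraction of recording tags encoded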
[48] = molecular target: M44-modified P NTAA target peptides; assay: encoding assay; P2 I;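 note: fraction of recording tags encoded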
[49] = molecular target: M44-modified W NTAA target peptides; assay: encoding assay; P2 Q;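 note: fraction of recording tags encoded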
[50] = molecular target: M44-modified G NTAA target peptides (M44-G-P2-peptide); assay: encoding assay; P2 Q;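 note: fraction of recording tags encoded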
[51] = molecular target: M44-modified T NTAA target peptides; assay: encoding assay; P2 Q;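 note: fraction of recording tags encoded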
[52] = molecular target: M44-modified P NTAA target peptides; assay: encoding assay; P2 Q;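 note: fraction of recording tags encoded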
[53] = molecular target: M44-modified Y NTAA target peptides (M44-Y-P2-peptide); assay: encoding assay; P2 Q;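 note: fraction of recording tags encoded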
[54] = molecular target: M44-modified S NTAA target peptides; assay: encoding assay; P2 Y

Measured: encoding yield

B1: engineered M17-Y binder (SEQ ID NO: 61) (designed binder, not shown: small tags and cut ends; large carriers)
chain: TVPDRSEIAGKWYVVALASNTEFYLREKDWVKSAMARISFLGEDELKVSSAVPSPNGCYKVERTWKKTSDDGEVYNSRAAKLKVEVLDTDYKSYAVIYATRVKDGRTDHQMILYSRSPEVSPAATAIFRKLAGERNYTDEMVAMLPRQEECTVDEV
0.02: [2] | [3] | [13] | [17] | [19] | [25] | [27] | [30] | [31]
0.01: [7] | [10] | [11] | [12] | [16] | [23] | [26] | [35] | [39] | [42] | [46]
0.15: [40]
0.1: [38] | [45]
0.04: [6] | [9] | [18] | [36] | [41] | [44]
0.05: [4]
0.17: [28]
0.07: [37]
0.09: [33]
0.06: [43]
not listed: [48] | [49] | [50] | [51] | [52] | [53] | [54]
0.03: all other assays above

B2: upgraded binder after additional maturation round (SEQ ID NO: 62) (designed binder, not shown: small tags and cut ends; large carriers)
chain: B1 chain with E27G, W30R, A36V, L41Q, G105R, E119D
0.21: [40]
0.01: [7] | [11] | [19] | [35] | [46]
0.1: [33]
0.12: [37] | [38]
0.05: [47]
0.06: [43] | [44]
0.11: [45]
0.04: [6] | [8] | [9] | [14] | [20] | [21] | [26] | [30] | [41]
0.15: [15]
0.08: [4]
0.02: [2] | [10] | [12] | [16] | [17] | [23] | [27] | [32] | [36]
0.29: [28]
not listed: [48] | [49] | [50] | [51] | [52] | [53] | [54]
0.03: all other assays above

B3: engineered M44-L binder (SEQ ID NO: 31) (designed binder, not shown: small tags and cut ends; large carriers)
chain: QDSTQNLIPAPPLISVPLQPGFWTERFQGRWFLVGFAGNAVQKERQSRLTMQSLILELQEDNSYNITAINVRGQGCRYIISTLVPSSRPGQFTLGNIHSYPQIQSLDVQVADTDYDQFAMVFLQGTSENKQYFEVALAGRTKGLSDELKERFVSFAKSLGLKDNNIVFSVPTDQCIDN
0.03: [53]
0.01: [48] | [50] | [52] | [54]
0.02: [49] | [51]

B4: engineered M44-A binder (SEQ ID NO: 42) (designed binder, not shown: small tags and cut ends; large carriers)
chain: QVSVQPNFQQDKFLGRWFVAGLASNSSWDREKVAALSGAKMVVAPATDGGLNVTRTMLRKNQCETYTGLLQPAGSLGSYSWRSPHPGSTGSESVVETDYDQYALVYGQGSKGPGEDLRAAALWSRTQTPRAELKEKFTAFSKAQGFTEDTIVFLPQTDKCMTEQ
0.02: [49] | [51] | [53]
0.01: [48] | [50] | [52] | [54]
